Measured values from publication PMC11586170, “Amino-functionalized vertically ordered mesoporous silica film on electrochemically polarized screen-printed carbon electrodes for the construction of gated electrochemical aptasensors and sensitive d”.

Molecular target: carcinoembryonic antigen (CEA) (UniProt P06731 35-685)
Test: electrochemical aptasensor (DPV, Fe(CN)6 3-/4- probe); aptamer immobilized on BSA-blocked NH2-VMSF/p-SPCE; linear range 100 fg/mL-100 ng/mL, LOD 24 fg/mL (not an affinity); aptamer immobilized in 0.01 M PBS pH 7.4 (4 C, 90 min), BSA block 0.1 wt%; CEA incubation 60 min; CEA binding buffer and temperature not in the material
Details: protein: commercial

Chain of carcinoembryonic antigen (CEA) (P06731 35-685): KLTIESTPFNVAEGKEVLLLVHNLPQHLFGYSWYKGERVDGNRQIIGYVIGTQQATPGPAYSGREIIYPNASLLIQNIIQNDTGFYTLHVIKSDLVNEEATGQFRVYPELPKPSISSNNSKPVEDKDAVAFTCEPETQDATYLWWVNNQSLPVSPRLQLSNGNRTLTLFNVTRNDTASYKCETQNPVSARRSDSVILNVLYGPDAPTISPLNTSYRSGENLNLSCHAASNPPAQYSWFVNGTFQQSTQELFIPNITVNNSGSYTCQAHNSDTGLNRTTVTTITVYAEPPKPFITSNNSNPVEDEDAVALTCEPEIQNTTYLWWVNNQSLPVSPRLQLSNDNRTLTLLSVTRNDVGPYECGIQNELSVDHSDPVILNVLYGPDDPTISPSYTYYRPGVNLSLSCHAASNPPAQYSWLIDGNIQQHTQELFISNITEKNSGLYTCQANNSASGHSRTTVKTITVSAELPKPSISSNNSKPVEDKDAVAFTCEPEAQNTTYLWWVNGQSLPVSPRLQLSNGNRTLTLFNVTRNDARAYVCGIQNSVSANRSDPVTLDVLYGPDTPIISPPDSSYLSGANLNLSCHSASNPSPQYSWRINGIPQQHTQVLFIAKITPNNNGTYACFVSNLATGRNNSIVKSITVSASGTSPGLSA

B1: amino-modified CEA aptamer (Apt) (ssDNA)
DNA: ATACAGCTTCAATT
modifications: 3'-NH2
**Q.** Does B1 bind?
**A.** Result: binds
